This note sets out measurements from patent publication US20220033484A1 (FAPON BIOTECH, published 2022).

In the experiment the target is T1, cTnI quality control product recombinant protein (human, UniProt P19429 2-210, limits assumed).
T1 construct: treated as the same molecule; also called cTnI antigen; cardiac troponin I
In words: AMC sensor, antibody immobilised, cTnI in solution. As to the method: Operating process: it is equilibrated in Buffer 1 (PBST) for 60 s, the antibody is immobilized in an antibody solution for 300 s, incubated in Buffer 2 (PBST) for 180 s, bound in antigen solution for 420 s, dissociated in the Buffer 2 for 1200 s, 10 mM of GLY solution with pH 1.69 and Buffer 3 are used for sensor regeneration, and data is output. KD represents an equilibrium dissociation constant, namely the affinity; Kon represents a binding rate; and Kd is represents a dissociation rate.

T1 sequence (P19429 2-210 limits assumed): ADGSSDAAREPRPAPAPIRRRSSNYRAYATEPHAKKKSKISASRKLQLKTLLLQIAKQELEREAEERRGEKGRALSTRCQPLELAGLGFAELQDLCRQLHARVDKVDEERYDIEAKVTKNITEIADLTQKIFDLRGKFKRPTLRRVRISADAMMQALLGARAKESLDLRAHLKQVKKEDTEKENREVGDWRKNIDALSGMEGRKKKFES

B1: WT 1-51 (antibody, V domains shown)
VH: EVQLQQSGPELVKPGASVKMSCKASGYSFTIYVVHWVKQKPGQGLEWIGYIQPYIDGTRYNEKFKGKATLTVDKSSSTAFMELSSLTSEDSAVYYCARTGYGQYGLAWLAYWGQGTLVTVSA
VL: QAVVIQESALTTSPGETVTLTCRSSSGAATTSQYANWVQEKPDHLFTGLIGGSNNRAPGVPARFSGSLIGDKAALTITGAQTEDEAIYFCAIVYSNHWVFGGGTKLTVLG
notes: Heavy chain built as m63
Turning to B1, the Kd (as a rule, the constant that tells how readily two partners part at equilibrium) worked out at 35.4 nM; the koff (in general, the first-order rate constant of dissociation) was determined as 0.000527 s⁻¹; the kon (commonly the second-order rate constant of association) turned out to be 14900 M⁻¹ s⁻¹.

B2: Mutation 1-9 (antibody, V domains shown)
VH: EVQLQQSGPELVKPGASVKMSCKASGYTFTLYVVHWVKQKPGQGLEWIGYIQPYLDGTKYNEKFKGKATLTVDKSSSTAFMELSSLTSEDSAVYYCARSGYGQYGLAWLAYWGQGTLVTVSA
VL: QAVVIQESALTTSPGETVTLTCRSSTGAATTSNYANWVQEKPDHLFTGLIGGSQNRAPGVPARFSGSLIGDKAALTITGAQTEDEAIYFCALVYSNHWVFGGGTKLTVLG
notes: Built as m8
For B2, the Kd was 5.43 nM, the koff stood at 0.00024 s⁻¹ and the kon worked out at 44200 M⁻¹ s⁻¹.

B3: Mutation 1-20 (antibody, V domains shown)
VH: EVQLQQSGPELVKPGASVKMSCKASGYTFTIYVIHWVKQKPGQGLEWIGYIYPYIDGTKYNEKFKGKATLTVDKSSSTAFMELSSLTSEDSAVYYCARSGYGGYGLAWLAYWGQGTLVTVSA
VL: QAVVIQESALTTSPGETVTLTCRSSTGAATTSQYANWVQEKPDHLFTGLIGGSNNRAPGVPARFSGSLIGDKAALTITGAQTEDEAIYFCALVYSNNWVFGGGTKLTVLG
notes: Built as m8
For B3, the Kd amounted to 7.74 nM, the koff stood at 0.000542 s⁻¹ and the kon stood at 70000 M⁻¹ s⁻¹.

B4: Mutation 1-18 (antibody, V domains shown)
VH: EVQLQQSGPELVKPGASVKMSCKASGYTFTIYVVHWVKQKPGQGLEWIGYINPYLDGTKYNEKFKGKATLTVDKSSSTAFMELSSLTSEDSAVYYCARSGYGQYGLAWLAYWGQGTLVTVSA
VL: QAVVIQESALTTSPGETVTLTCRSSTGAVTTSQYANWVQEKPDHLFTGLIGGSNNRAPGVPARFSGSLIGDKAALTITGAQTEDEAIYFCALVYSNHWVFGGGTKLTVLG
notes: Built as m8
On to B4, for which the Kd was found to be 9.31 nM, the koff worked out at 0.000586 s⁻¹ and the kon was determined as 63000 M⁻¹ s⁻¹.

B5: Mutation 1-1 (antibody, V domains shown)
VH: EVQLQQSGPELVKPGASVKMSCKASGYTFTIYVLHWVKQKPGQGLEWIGYIQPYIDGTKYNEKFKGKATLTVDKSSSTAFMELSSLTSEDSAVYYCARSGYGNYGLAWLAYWGQGTLVTVSA
VL: QAVVIQESALTTSPGETVTLTCRSSTGAATTSNYANWVQEKPDHLFTGLIGGSQNRAPGVPARFSGSLIGDKAALTITGAQTEDEAIYFCALVYSNQWVFGGGTKLTVLG
notes: built as m3
As to B5, the Kd worked out at 8.27 nM, the koff was 0.000712 s⁻¹ and the kon was found to be 86100 M⁻¹ s⁻¹.

B6: Mutation 1-14 (antibody, V domains shown)
VH: EVQLQQSGPELVKPGASVKMSCKASGYTFTIYVIHWVKQKPGQGLEWIGYINPYIDGTKYNEKFKGKATLTVDKSSSTAFMELSSLTSEDSAVYYCARSGYGGYGLAWLAYWGQGTLVTVSA
VL: QAVVIQESALTTSPGETVTLTCRSSTGAVTTSQYANWVQEKPDHLFTGLIGGSNNRAPGVPARFSGSLIGDKAALTITGAQTEDEAIYFCALVYSNHWVFGGGTKLTVLG
notes: Built as m8
For the molecule B6, the Kd amounted to 0.866 nM, the koff amounted to 2.21e-05 s⁻¹ and the kon came to 25500 M⁻¹ s⁻¹.

B7: Mutation 1-6 (antibody, V domains shown)
VH: EVQLQQSGPELVKPGASVKMSCKASGYTFTIYVVHWVKQKPGQGLEWIGYIQPYLDGTKYNEKFKGKATLTVDKSSSTAFMELSSLTSEDSAVYYCARSGYGQYGLAWLAYWGQGTLVTVSA
VL: QAVVIQESALTTSPGETVTLTCRSSTGAVTTSQYANWVQEKPDHLFTGLIGGSNNRAPGVPARFSGSLIGDKAALTITGAQTEDEAIYFCALVYSNNWVFGGGTKLTVLG
notes: Built as m8
As to B7, the Kd amounted to 0.697 nM, the off-rate (koff) was 5.34e-05 s⁻¹ and the kon was determined as 76600 M⁻¹ s⁻¹.

B8: Mutation 1-3 (antibody, V domains shown)
VH: EVQLQQSGPELVKPGASVKMSCKASGYTFTLYVVHWVKQKPGQGLEWIGYIQPYIDGTKYNEKFKGKATLTVDKSSSTAFMELSSLTSEDSAVYYCARSGYGQYGLAWLAYWGQGTLVTVSA
VL: QAVVIQESALTTSPGETVTLTCRSSTGAVTTSNYANWVQEKPDHLFTGLIGGSQNRAPGVPARFSGSLIGDKAALTITGAQTEDEAIYFCALVYSNQWVFGGGTKLTVLG
notes: Built as m8
Turning to B8, the Kd was determined as 0.399 nM, the koff stood at 9.54e-06 s⁻¹ and the kon is 23900 M⁻¹ s⁻¹.

B9: Mutation 1-2 (antibody, V domains shown)
VH: EVQLQQSGPELVKPGASVKMSCKASGYTFTIYVIHWVKQKPGQGLEWIGYIQPYIDGTKYNEKFKGKATLTVDKSSSTAFMELSSLTSEDSAVYYCARSGYGGYGLAWLAYWGQGTLVTVSA
VL: QAVVIQESALTTSPGETVTLTCRSSTGAVTTSQYANWVQEKPDHLFTGLIGGSNNRAPGVPARFSGSLIGDKAALTITGAQTEDEAIYFCALVYSNNWVFGGGTKLTVLG
notes: Built as m8
On to B9, for which the Kd stood at 7.64 nM, the koff is 0.00061 s⁻¹ and the kon is 79900 M⁻¹ s⁻¹.

B10: Mutation 1-15 (antibody, V domains shown)
VH: EVQLQQSGPELVKPGASVKMSCKASGYTFTLYVVHWVKQKPGQGLEWIGYINPYIDGTKYNEKFKGKATLTVDKSSSTAFMELSSLTSEDSAVYYCARSGYGQYGLAWLAYWGQGTLVTVSA
VL: QAVVIQESALTTSPGETVTLTCRSSTGAVTTSNYANWVQEKPDHLFTGLIGGSQNRAPGVPARFSGSLIGDKAALTITGAQTEDEAIYFCALVYSNNWVFGGGTKLTVLG
notes: Built as m8
In the case of B10, the Kd stood at 0.759 nM, the koff was determined as 4.7e-05 s⁻¹ and the kon was 61900 M⁻¹ s⁻¹.

B11: Mutation 1-5 (antibody, V domains shown)
VH: EVQLQQSGPELVKPGASVKMSCKASGYTFTLYVIHWVKQKPGQGLEWIGYIQPYIDGTKYNEKFKGKATLTVDKSSSTAFMELSSLTSEDSAVYYCARSGYGGYGLAWLAYWGQGTLVTVSA
VL: QAVVIQESALTTSPGETVTLTCRSSTGAATTSNYANWVQEKPDHLFTGLIGGSQNRAPGVPARFSGSLIGDKAALTITGAQTEDEAIYFCALVYSNHWVFGGGTKLTVLG
notes: Built as m8
In the case of B11, the Kd is 1.2 nM, the off-rate constant (koff) worked out at 4.4e-05 s⁻¹ and the kon worked out at 36800 M⁻¹ s⁻¹.

B12: Mutation 1-10 (antibody, V domains shown)
VH: EVQLQQSGPELVKPGASVKMSCKASGYTFTLYVLHWVKQKPGQGLEWIGYIQPYLDGTKYNEKFKGKATLTVDKSSSTAFMELSSLTSEDSAVYYCARSGYGNYGLAWLAYWGQGTLVTVSA
VL: QAVVIQESALTTSPGETVTLTCRSSTGAVTTSQYANWVQEKPDHLFTGLIGGSNNRAPGVPARFSGSLIGDKAALTITGAQTEDEAIYFCALVYSNQWVFGGGTKLTVLG
notes: Built as m8
With B12, the Kd amounted to 0.731 nM, the koff came to 4.12e-05 s⁻¹ and the kon was 56300 M⁻¹ s⁻¹.

B13: Mutation 1-4 (antibody, V domains shown)
VH: EVQLQQSGPELVKPGASVKMSCKASGYTFTLYVLHWVKQKPGQGLEWIGYIQPYIDGTKYNEKFKGKATLTVDKSSSTAFMELSSLTSEDSAVYYCARSGYGNYGLAWLAYWGQGTLVTVSA
VL: QAVVIQESALTTSPGETVTLTCRSSTGAATTSQYANWVQEKPDHLFTGLIGGSNNRAPGVPARFSGSLIGDKAALTITGAQTEDEAIYFCALVYSNNWVFGGGTKLTVLG
notes: Built as m8
In the case of B13, the Kd stood at 5.03 nM, the koff turned out to be 0.000232 s⁻¹ and the kon is 46200 M⁻¹ s⁻¹.

B14: Mutation 1-8 (antibody, V domains shown)
VH: EVQLQQSGPELVKPGASVKMSCKASGYTFTIYVIHWVKQKPGQGLEWIGYIQPYLDGTKYNEKFKGKATLTVDKSSSTAFMELSSLTSEDSAVYYCARSGYGGYGLAWLAYWGQGTLVTVSA
VL: QAVVIQESALTTSPGETVTLTCRSSTGAATTSQYANWVQEKPDHLFTGLIGGSNNRAPGVPARFSGSLIGDKAALTITGAQTEDEAIYFCALVYSNQWVFGGGTKLTVLG
notes: Built as m8
Turning to B14, the Kd is 9.31 nM, the koff was determined as 0.000244 s⁻¹ and the kon was found to be 26200 M⁻¹ s⁻¹.

B15: Mutation 1-7 (antibody, V domains shown)
VH: EVQLQQSGPELVKPGASVKMSCKASGYTFTIYVLHWVKQKPGQGLEWIGYIQPYLDGTKYNEKFKGKATLTVDKSSSTAFMELSSLTSEDSAVYYCARSGYGNYGLAWLAYWGQGTLVTVSA
VL: QAVVIQESALTTSPGETVTLTCRSSTGAVTTSNYANWVQEKPDHLFTGLIGGSQNRAPGVPARFSGSLIGDKAALTITGAQTEDEAIYFCALVYSNHWVFGGGTKLTVLG
notes: Built as m8
As to B15, the Kd amounted to 2.77 nM, the koff was found to be 0.000176 s⁻¹ and the kon is 63600 M⁻¹ s⁻¹.

B16: Mutation 1-16 (antibody, V domains shown)
VH: EVQLQQSGPELVKPGASVKMSCKASGYTFTLYVLHWVKQKPGQGLEWIGYINPYLDGTKYNEKFKGKATLTVDKSSSTAFMELSSLTSEDSAVYYCARSGYGNYGLAWLAYWGQGTLVTVSA
VL: QAVVIQESALTTSPGETVTLTCRSSTGAATTSQYANWVQEKPDHLFTGLIGGSNNRAPGVPARFSGSLIGDKAALTITGAQTEDEAIYFCALVYSNHWVFGGGTKLTVLG
notes: Built as m8
Regarding B16, the Kd came out at 6.48 nM, the koff was determined as 0.000222 s⁻¹ and the kon came out at 34300 M⁻¹ s⁻¹.

B17: Mutation 1-13 (antibody, V domains shown)
VH: EVQLQQSGPELVKPGASVKMSCKASGYTFTIYVLHWVKQKPGQGLEWIGYINPYIDGTKYNEKFKGKATLTVDKSSSTAFMELSSLTSEDSAVYYCARSGYGNYGLAWLAYWGQGTLVTVSA
VL: QAVVIQESALTTSPGETVTLTCRSSTGAATTSNYANWVQEKPDHLFTGLIGGSQNRAPGVPARFSGSLIGDKAALTITGAQTEDEAIYFCALVYSNNWVFGGGTKLTVLG
notes: Built as m8
Turning to B17, the Kd was 0.139 nM, the koff stood at 3.79e-06 s⁻¹ and the kon worked out at 27300 M⁻¹ s⁻¹.
